The target in one test is T1, recombinant human PD-1 (human, UniProt Q15116 25-167).
T1 construct: also called 重组PD-1; 人PD-1
The experiment in a line: SPR, PD-1 fixed on carboxymethyl dextran chip, bispecific 100nM, then Vδ1 heterodimer 100nM. A general note: In SPR one partner is held on a chip, and binding of the other changes the refractive index at the surface.

For test [1], the target named is human Vδ1 γδ T cell receptor on cells (skin-, blood- or tumour-derived Vδ1 γδ T cells) (human). Nature of the test: cell-based or functional assay.
The target of the next test is T2, recombinant human OX40 (human, UniProt P43489 29-216).
T2 construct: also called 重组OX40; 人OX40
T2 sequence (looked up): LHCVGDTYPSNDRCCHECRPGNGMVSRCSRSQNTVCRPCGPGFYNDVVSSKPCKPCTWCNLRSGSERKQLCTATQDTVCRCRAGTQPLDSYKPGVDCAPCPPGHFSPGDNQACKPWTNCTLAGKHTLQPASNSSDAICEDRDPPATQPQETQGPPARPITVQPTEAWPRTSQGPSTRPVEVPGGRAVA
Nature of the test: SPR, OX40 fixed on carboxymethyl dextran chip, bispecific 100nM, then Vδ1 heterodimer 100nM.

human Vδ1 γδ T cell receptor on cells (skin-, blood- or tumour-derived Vδ1 γδ T cells) (human), sequence (A0A1B0GX56 22-115, stated change not applied): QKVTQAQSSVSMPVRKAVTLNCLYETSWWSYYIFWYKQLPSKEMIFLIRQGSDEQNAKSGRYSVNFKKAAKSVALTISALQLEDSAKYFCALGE
T1 sequence (Q15116 25-167 limits assumed): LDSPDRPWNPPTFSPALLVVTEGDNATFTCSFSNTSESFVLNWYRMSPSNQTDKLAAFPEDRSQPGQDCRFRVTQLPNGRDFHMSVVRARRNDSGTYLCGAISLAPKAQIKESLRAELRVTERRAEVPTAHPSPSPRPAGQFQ

B1: 抗Vδ1×PD-1双特异性抗体 (ADT1-4-2×帕博利珠单抗) (bispecific antibody, human IgG1, kappa)
chain 1: EIVLTQSPATLSLSPGERATLSCRASKGVSTSGYSYLHWYQQKPGQAPRLLIYLASYLESGVPARFSGSGSGTDFTLTISSLEPEDFAVYYCQHSRDLPLTFGGGTKVEIKRTVAAPSVFIFPPSDEQLKSGTASVVCLLNNFYPREAKVQWKVDNALQSGNSQESVTEQDSKDSTYSLSSTLTLSKADYEKHKVYACEVTHQGLSSPVTKSFNRGEC
chain 2: not shown
notes: also called 抗Vδ1×抗PD-1
With B1, in the test with recombinant human PD-1, the binding result was “binds”.

B2: ADT1-4 (parent antibody) (antibody, IgG1, V domains shown)
VH: QVQLQQSGPGLVKPSQTLSLTCAISGDSVSSKSAAWNWIRQSPSRGLEWLGRTYYRSKWSTDYAASVKSRITINPDTSKNQLSLQLNSVTPEDTAVYYCARTWSGYVDVWGQGTLVTVSS
VL: DIQMTQSPPALSASVGDRVTITCRASQDINDWLAWYQHKPGKAPKLLIYDASSLESGVPSRFSGSGSGTEFTLTISSLQPDDFATYYCQQSYSTPQVTFGQGTRLEIK
As to B2, the “TCR下调 IC50 (soluble assay)” value in test [1] was determined as 38.3 nM.

B3: 抗Vδ1×OX40双特异性抗体 (ADT1-4-2×珀伽利珠单抗) (bispecific antibody, human IgG1, kappa)
chain 1: DIQMTQSPPALSASVGDRVTITCRASQDINDWLAWYQHKPGKAPKLLIYDASSLESGVPLRFSGSGSGTEFTLTISSLQPDDFATYYCQQKYSAPQVTFGQGTRLEIKRTVAAPSVFIFPPSDEQLKSGTASVVCLLNNFYPREAKVQWKVDNALQSGNSQESVTEQDSKDSTYSLSSTLTLSKADYEKHKVYACEVTHQGLSSPVTKSFNRGEC
chain 2: not shown
notes: also called 抗Vδ1×抗OX40
In the case of B3, the binding result in the test with recombinant human OX40 is listed as “binds”.

Source of the values: CN117999282A (GAMMADELTA THERAPEUTICS LTD, dated 2024).
